US11891634B2, “PDE5A destabilizing domains” (The Board of Trustees of the Leland Stanford Junior …, priority 2017, dated 2024)

Experiments:
[1] = test system: NIH3T3 cells expressing AcGFP-PDE5A fusions; experiment: FACS analysis of C-terminal PDE5A mutants (AcGFP-PDE5A fusions), Sildenafil vs vehicle; type: cell-based, mouse; conditions: Table 2, 24 hours; for Mean Fluorescence intensity: NIH3T3
Procedure: The NIH3T3 cell line was cultured in DMEM supplemented with 10% heat-inactivated donor bovine serum (Invitrogen), 2 mM glutamine, 100 U/ml penicillin and 100 μg/ml streptomycin.
The ΦNX ecotropic packaging cell line was transfected using standard Lipofectamine 2000 protocols. Viral supernatants were harvested 48 hours, post transfection, filtered and concentrated 10-fold using Amicon Ultra centrifugal filter device with a 100kDa cutoff. NIH 3T3 cells were incubated with concentrated retroviral supernatants supplemented with 4 μg/ml polybrene for 4 hours at 37° C. Cells were washed once with PBS and cultured in growth media for 24-36 hours to allow for viral integration.
The transduced NIH3T3 cells were subjected to analysis using fluorescence-activated cell sorting (FACS) to screen the libraries of PDE5A mutants. 24 hours prior to analysis, transduced NIH3T3 cells were plated at 1×10^5 cells per well of a 12-well plate. Cells were removed from the plate using PBS and 2 mM EDTA, washed once with PBS, and resuspended in 200 μL, PBS. […]
To identify destabilizing domains that are responsive to the PDE5A ligand, Sildenafil, a cell-based screening assay was employed in which the fluorescence of green fluorescent protein derived from Aequorea coerulescens (AcGFP) served as an indicator of PDE5A stability. […]
A library of AcGFP-PDE5A fusions i.e., C-terminal PDE5A mutants was screened using the cell-based screening assay described previously to identify C-terminal destabilizing domains. […] The stabilization ratio was calculated as the fold change in GFP intensity of the AcGFP-PDE5A construct in Sildenafil treated sample compared to vehicle alone treated sample. […]
Residue D764 was identified as a mutational hotspot from sequence analysis. […] AcGFP-PDE5A variants were evaluated for Sildenafil dependent stabilization via FACS as described previously. […] The stabilization ratio was calculated as the fold change in GFP intensity of the AcGFP-PDE5A construct in Sildenafil treated sample compared to vehicle alone treated sample. […]

[2] = test system: HCT 116 cells transduced with the PDE5A DD derived GFP constructs; experiment: Response to Tadalafil, GFP expression by FACS in HCT116; type: cell-based, human; conditions: for MFI / Stabilization ratio with Tadalafil: 48 hours, HCT116
Procedure: PDE5AN (#3) was cloned as AcGFP fusion into pELNS vector carrying mCherry marker and packaged in lentiviral vectors. HCT116 cells were transduced with the construct and stable integrants were selected by cell sorting using mCherry marker. Cells were treated with vehicle (dimethyl sulfoxide, DMSO) or varying doses of Tadalafil (TDF) for 48 hrs with doses ranging from 0.01 μM to 100 μM. Following the treatment, cells were analyzed for GFP expression using FACS. Basal expression was calculated as the ratio of GFP signal in the absence of ligand for a given cell line to auto fluorescence of parental HCT-116 cells. Stabilization ratio was calculated as the ratio of the GFP signal observed in the presence of stabilizing ligand to the signal from the same cell line in the absence of ligand.
HCT 116 cells transduced with the PDE5A DD derived GFP constructs were also tested with increasing doses of Tadalafil. The HCT116 cells were incubated for 48 hours with Tadalafil starting at dose 0.01 μM to 100 μM. The GFP intensity of the Tadalafil treated samples was compared to the parental untransduced HCT116 and DMSO treated cells for each construct. The mean fluorescence intensity was calculated for each sample and used to calculate the stabilization ratios as well as the basal expression for each construct. The stabilization ratios are shown in Table 19 and Table 20 and the basal expression is show in Table 21.

B1: PDE5AC (#42): AcGFP fused to C-terminal DD 535-860 of PDE5A (E535D, K555R, F564S, Q589R, K630R, C677R, N742S, I799T, M816A), SEQ ID NO. 28 (protein)
chain: DETRELQSLAAAVVPSAQTLRITDFSFSDSELSDLETALCTIRMFTDLNLVQNFRMKHEVLCRWILSVKKNYRKNVAYHNWRHAFNTAQCMFAALRAGKIQNKLTDLEILALLIAALSHDLDHRGVNNSYIQRSEHPLAQLYRHSIMEHHHFDQCLMILNSPGNQILSGLSIEEYKTTLKIIKQAILATDLALYIKRRGEFFELIRKSQFNLEDPHQKELFLAMLMTACDLSAITKPWPIQQRIAELVATEFFDQGDRERKELNTEPTDLMNREKKNKIPSAQVGFIDAICLQLYEALTHVSEDCFPLLDGCRKNRQKWQALAEQQ
modifications: /note=“Description of Artificial Sequence Synthetic Destabilizing Domain (DD)”
Mean Fluorescence intensity ([1]; Sildenafil (10 μM) +): 5861 | Mean Fluorescence intensity ([1]; Sildenafil (10 μM) −, vehicle alone): 1658 | Stabilization ratio ([1]; fold change in GFP intensity, Sildenafil 10 μM vs vehicle alone): 3.5 | MFI ([2]; DMSO (no Tadalafil)): 22601 | Basal expression ([2]; Table 21, MFI with DMSO / parental HCT116, Tadalafil experiment): 17.66 | Stabilization ratio with Tadalafil ([2]; Tadalafil 0.01 μM vs DMSO): 1.0 | MFI ([2]; Tadalafil 0.01 μM): 22787 | Stabilization ratio with Tadalafil ([2]; Tadalafil 0.02 μM vs DMSO): 1.0 | MFI ([2]; Tadalafil 0.02 μM): 23274 | Stabilization ratio with Tadalafil ([2]; Tadalafil 0.05 μM vs DMSO): 1.0 | MFI ([2]; Tadalafil 0.05 μM): 23278 | Stabilization ratio with Tadalafil ([2]; Tadalafil 0.14 μM vs DMSO): 1.1 | MFI ([2]; Tadalafil 0.14 μM): 24532 | Stabilization ratio with Tadalafil ([2]; Tadalafil 0.41 μM vs DMSO): 1.2 | MFI ([2]; Tadalafil 0.41 μM): 26765 | Stabilization ratio with Tadalafil ([2]; Tadalafil 1.23 μM vs DMSO): 1.6 | MFI ([2]; Tadalafil 1.23 μM): 35325 | Stabilization ratio with Tadalafil ([2]; Tadalafil 3.7 μM vs DMSO): 2.6 | MFI ([2]; Tadalafil 3.7 μM): 59821 | Stabilization ratio with Tadalafil ([2]; Tadalafil 11.11 μM vs DMSO): 4.1 | MFI ([2]; Tadalafil 11.11 μM): 92400 | Stabilization ratio with Tadalafil ([2]; Tadalafil 33.33 μM vs DMSO): 5.4 | MFI ([2]; Tadalafil 33.33 μM): 122658 | Stabilization ratio with Tadalafil ([2]; Tadalafil 100 μM vs DMSO): 6.2 | MFI ([2]; Tadalafil 100 μM): 139002
